US20230295597
Where a chain is given by its changes, count along the chain named. Names and notes keep the numbering of the source.

Key:
[1] = target: T1, von Willebrand factor (vWF), substrate of the ADAMTS-13 activity assay, P04275
T1 chain: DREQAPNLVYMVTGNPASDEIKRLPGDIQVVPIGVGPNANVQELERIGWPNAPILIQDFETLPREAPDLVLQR

[2] = target: anti ADAMTS-13 autoantibodies in plasma from patients with acquired ADAMTS-13 deficiency (TTP plasma)
[3] = target: ultralarge von Willebrand factor multimers present in human plasma, P04275

B1: trADAMTS-13^V313D (truncated ADAMTS-13 mutant, Val313 to Asp) (protein)
chain: AAGGILHLELLVAVGPDVFQAHQEDTERYVLTNLNIGAELLRDPSLGAQFRVHLVKMVILTEPEGAPNITANLTSSLLSVCGWSQTINPEDDTDPGHADLVLYITRFDLELPDGNRQVRGVTQLGGACSPTWSCLITEDTGFDLGVTIAHEIGHSFGLEHDGAPGSGCGPSGHVMASDGAAPRAGLAWSPCSRRQLLSLLSAGRARCVWDPPRPQPGSAGHPPDAQPGLYYSANEQCRDAFGPKAVACTFAREHLDMCQALSCHTDPLDQSSCSRLLVPLLDGTECGVEKWCSKGRCRSLVELTPIAAVHGRWSSWGPRSPCSRSCGGGVVTRRRQCNNPRPAFGGRACVGADLQAEMCNTQACEKTQLEFMSQQCARTDGQPLRSSPGGASFYHWGAAVPHSQGDALCRHMCRAIGESFIMKRGDSFLDGTRCMPSGPREDGTLSLCVSGSCRTFGCDGRMDSQQVWDRCQVCGGDNSTCSPRKGSFTAGRAREYVTFLTVTPNLTSVYIANHRPLFTHLAVRIGGRYVVAGKMSISPNTTYPSLLEDGRVEYRVALTEDRLPRLEEIRIWGPLQEDADIQVYRRYGEEYGNLTRPDITFTYFQPKPRQADYKDHDGDYKDHDIDYKDDDDK
decrease of proteolytic activity on vWF against the un-mutated variant [1]: replacing V^313 with D (trADAMTS-13^V313D) decreased by more than 50% the proteolytic activity of the resultant ADAMTS-13 variant on vWF (FIG. 6B)

B2: trADAMTS-13^R312K (truncated ADAMTS-13 mutant, Arg312 to Lys) (protein)
chain: B1 chain with R238K, D239V
proteolytic activity on vWF after 2 hours or 24 hours with TTP plasma [2]: The substantial resistance to inhibition of trADAMTS-13^R312K was shown around 2 hours up to 24 hours following incubation with TTP plasma (FIG. 9B) | catalytic activity on vWF [1]: trADAMTS-13^R312K was the most potent variant exhibiting enhanced proteolytic activity on vWF (FIG. 6B), in comparison with the un-mutated protein trADAMTS-13 WT

B3: trADAMTS-13^R312A (truncated ADAMTS-13 mutant, Arg312 to Ala) (protein)
chain: B1 chain with R238A, D239V
catalytic activity on vWF [1]: trADAMTS-13^R312A catalytic activity was not affected significantly by replacing R^312 with A (FIG. 6B)

B4: trADAMTS-13^V313A (truncated ADAMTS-13 mutant, Val313 to Ala) (protein)
chain: B1 chain with D239A
catalytic activity on vWF [1]: Replacing V^313 with A (trADAMTS-13^V313A), also had no significant effect on its proteolytic activity on vWF (FIG. 6B)

B5: truncated recombinant human ADAMTS-13 variant (MDTCS), trADAMTS-13 WT (protein)
chain: RSAAGGILHLELLVAVGPDVFQAHQEDTERYVLTNLNIGAELLRDPSLGAQFRVHLVKMVILTEPEGAPNITANLTSSLLSVCGWSQTINPEDDTDPGHADLVLYITRFDLELPDGNRQVRGVTQLGGACSPTWSCLITEDTGFDLGVTIAHEIGHSFGLEHDGAPGSGCGPSGHVMASDGAAPRAGLAWSPCSRRQLLSLLSAGRARCVWDPPRPQPGSAGHPPDAQPGLYYSANEQCRVAFGPKAVACTFAREHLDMCQALSCHTDPLDQSSCSRLLVPLLDGTECGVEKWCSKGRCRSLVELTPIAAVHGRWSSWGPRSPCSRSCGGGVVTRRRQCNNPRPAFGGRACVGADLQAEMCNTQACEKTQLEFMSQQCARTDGQPLRSSPGGASFYHWGAAVPHSQGDALCRHMCRAIGESFIMKRGDSFLDGTRCMPSGPREDGTLSLCVSGSCRTFGCDGRMDSQQVWDRCQVCGGDNSTCSPRKGSFTAGRAREYVTFLTVTPNLTSVYIANHRPLFTHLAVRIGGRYVVAGKMSISPNTTYPSLLEDGRVEYRVALTEDRLPRLEEIRIWGPLQEDADIQVYRRYGEEYGNLTRPDITFTYFQPKPRQADYKDHDGDYKDHDIDYKDDDDK
proteolysis of vWF multimers in human plasma, trADAMTS-13 300 nM, Western blot with anti-vWF antibody [3]: the inactivation of trADAMTS-13 by tPA prevented the proteolysis of ULvWV multimers present in human plasma (FIG. 4D)
